Five molecules from patent US20250186614A1, “COMPACT DRUG RESPONSIVE DOMAINS FOR REGULATION OF FUNCTION/ABUNDANCE AND DELIVERY OF POLYPEPTIDE PAYLOADS” (OBSIDIAN THERAPEUTICS, INC., priority 2022, published 2025) can be followed below.

Common to all, as to assay type: cell-based
Experiment [1] has as its system Jurkat cells. The experiment can be described thus: Tacrolimus dose response of FKBP13-AcGFP-mCherry constructs stably transduced into Jurkat cells, GFP MFI by flow cytometry. To be noted: tacrolimus, Table 14; for Tacrolimus FC: fold change. In short, it runs like this:
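Jurkat E6-1 cells lentivirally transduced with FKBP13-AcGFP-mCherry constructs to 10-25% mCherry+ (day 5) were dosed with tacrolimus. GFP geometric MFI in mCherry+ cells was measured by flow cytometry and fitted to dose-response curves.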

The test system of experiment [2] is Jurkat cells. The experiment can be described thus: Sirolimus (rapamycin) dose response of FKBP13 constructs stably transduced into Jurkat cells, flow cytometry. To be noted: rapamycin, Table 14; for Rapamycin FC: fold change. As to the method:
Normalized EC50 values were calculated from the mCherry normalized GFP MFI values, which accounted for any differences in mCherry intensity between samples.

A short description of experiment [3]: Example 4: dose response of FKBP constructs 160-255, Ec50, Ec90 and fold change (raw and normalized to mCherry). To be noted: for FC (fold change): fold change during initial analysis. The protocol:
Additional experiments were performed for constructs FKBP-160-292.

The mark [4] stands for this setting: read-out: Tacrolimus EC90 (Norm), normalized.
Setting [5] is: normalized, read-out: Rapamycin EC90 (Norm).
The mark [6] stands for this setting: FKBP constructs 160-255, not normalized, read-out: EC90.
[7] abbreviates: normalized to mCherry, read-out: EC90 (Norm).

Like-named read-outs stand apart in the source and are kept apart here.

B1: FKBP-171 (protein)
chain: HCPIKSRKGLVLHAHYTGKLEDGTEFDSSLPRNQPFVFSLGTGEVIKGWDQGLLGMCEGEKRKLVIPSELGYGERGWPPKIPGGATLVFEVELLKIER
modifications: Description of sequence: Construct Name: FKBP-171; Mutation(s): Q72R Q84E A117W DRD M54A D50L
In the case of B1, the concentration for an effect of 90% (EC90) (usually the point of the concentration-response curve where the effect stands at 90%) in the experiment with Jurkat cells [1] (setting [4]) came to 10.1 µM; in the experiment with Jurkat cells [1] (read-out: Tacrolimus EC90), 8.16 µM; in the experiment with Jurkat cells [2] (read-out: Rapamycin EC90) it was 16 µM; in the experiment with Jurkat cells [2] (setting [5]), 18 µM; in experiment [3] (setting [6]) it was 8.16 µM; in experiment [3] (setting [7]), 10.1 µM. For the same molecule, the “Tacrolimus FC” value in the experiment on Jurkat cells [1] is reported as 60.3. In addition, the “Rapamycin FC” value with Jurkat cells [2] is 14.1. Moreover, the “FC (fold change)” value in experiment [3] is on record as 60.3.

B2: FKBP-172 (protein)
chain: HCPIKSRKGDVLHAHYTGKLEDGTEFDSSLPRNQPFVFSLGTGEVIKGWDQGLLGWCEGEKRKLVIPSELGYGERGWPPKIPGGATLVFEVELLKIER
modifications: Description of sequence: Construct Name: FKBP-172; Mutation(s): Q72R Q84E A117W DRD M54A M96W
As to B2, the 90% effect concentration (EC90) with Jurkat cells [1] (setting [4]) was 1.31 µM; in the experiment with Jurkat cells [1] (read-out: Tacrolimus EC90) it was 1.05 µM; with Jurkat cells [2] (read-out: Rapamycin EC90) it was 2.14 µM; in the experiment on Jurkat cells [2] (setting [5]), 2.29 µM; in experiment [3] (setting [6]), 1.05 µM; in experiment [3] (setting [7]), 1.31 µM. Besides, the “Tacrolimus FC” value in the experiment with Jurkat cells [1] was found to be 63.1. Besides, the “Rapamycin FC” value in the experiment on Jurkat cells [2] stood at 21.3. For the same molecule, in experiment [3], the “FC (fold change)” value is 63.1.

B3: FKBP-178 (protein)
chain: HCPIKSRKGDVLHAHYTGKLEDGTEFDSSLPRNQPFVSSLGTGEVIKGWDQGLLGMCEGEKRKLVIPSELGYGERGWPPKIPGGATLVFEVELLKIER
modifications: Description of sequence: Construct Name: FKBP-178; Mutation(s): Q72R Q84E A117W DRD M54AF78S
Turning to B3, the EC90 in the experiment on Jurkat cells [1] (setting [4]) is 28.4 µM; in the experiment on Jurkat cells [1] (read-out: Tacrolimus EC90), 22.3 µM; in the experiment with Jurkat cells [2] (read-out: Rapamycin EC90), 16.8 µM; in the experiment on Jurkat cells [2] (setting [5]), 151 µM; in experiment [3] (setting [6]) it was 22.3 µM; in experiment [3] (setting [7]), 28.4 µM. In the experiment on Jurkat cells [1], the “Tacrolimus FC” value came to 36.4. Also, in the experiment on Jurkat cells [2], the “Rapamycin FC” value worked out at 2.9. Also, the “FC (fold change)” value in experiment [3] was found to be 36.4.

B4: FKBP-181 (protein)
chain: HCPIKSRKGLVLHAHYTGKLEDGTEFDSSLPRNQPFVFSLGTGERIKGWDQGLLGMCEGEKRKLVIPSELGYGERGWPPKIPGGATLVFEVELLKIER
modifications: Description of sequence: Construct Name: FKBP-181; Mutation(s): Q72R Q84E A117W V85R DRD M54A D50L
As for B4, the EC90 with Jurkat cells [1] (setting [4]) amounted to 5.06 µM; with Jurkat cells [1] (read-out: Tacrolimus EC90), 14.1 µM; in the experiment on Jurkat cells [2] (read-out: Rapamycin EC90), 11.8 µM; with Jurkat cells [2] (setting [5]), 11.5 µM; in experiment [3] (setting [6]), 14.1 µM; in experiment [3] (setting [7]), 5.06 µM. Also, the “Tacrolimus FC” value in the experiment on Jurkat cells [1] amounted to 52. Besides, in the experiment on Jurkat cells [2], the “Rapamycin FC” value worked out at 15.5. Also, the “FC (fold change)” value in experiment [3] is 52.0.

B5: FKBP-177 (protein)
chain: HCPIKSRKGDVLHAHYTGKLEDGTEFDSSLPRNQPFVFSGGTGEVIKGWDQGLLGMCEGEKRKLVIPSELGYGERGWPPKIPGGATLVFEVELLKIER
modifications: Description of sequence: Construct Name: FKBP-177; Mutation(s): Q72R Q84E A117W DRD M54AL80G
For the molecule B5, the EC90 was 23.9 µM with Jurkat cells [1] (setting [4]); 18.7 µM with Jurkat cells [1] (read-out: Tacrolimus EC90); 5.28 µM in the experiment on Jurkat cells [2] (read-out: Rapamycin EC90); 6.33 µM with Jurkat cells [2] (setting [5]); 18.7 µM in experiment [3] (setting [6]); 23.9 µM in experiment [3] (setting [7]). Also, the “Tacrolimus FC” value in the experiment on Jurkat cells [1] is 22.3. In the experiment with Jurkat cells [2], the “Rapamycin FC” value was 2.3. The “FC (fold change)” value in experiment [3] turned out to be 22.3.
